According to patent US20220227882A1 (TRUSTEES OF TUFTS COLLEGE, published 2022):

T1: Recombinant human ADAM15 (Sino Biological, 10517-H08H) (human, UniProt Q13444 18-696)
T1 sequence (looked up): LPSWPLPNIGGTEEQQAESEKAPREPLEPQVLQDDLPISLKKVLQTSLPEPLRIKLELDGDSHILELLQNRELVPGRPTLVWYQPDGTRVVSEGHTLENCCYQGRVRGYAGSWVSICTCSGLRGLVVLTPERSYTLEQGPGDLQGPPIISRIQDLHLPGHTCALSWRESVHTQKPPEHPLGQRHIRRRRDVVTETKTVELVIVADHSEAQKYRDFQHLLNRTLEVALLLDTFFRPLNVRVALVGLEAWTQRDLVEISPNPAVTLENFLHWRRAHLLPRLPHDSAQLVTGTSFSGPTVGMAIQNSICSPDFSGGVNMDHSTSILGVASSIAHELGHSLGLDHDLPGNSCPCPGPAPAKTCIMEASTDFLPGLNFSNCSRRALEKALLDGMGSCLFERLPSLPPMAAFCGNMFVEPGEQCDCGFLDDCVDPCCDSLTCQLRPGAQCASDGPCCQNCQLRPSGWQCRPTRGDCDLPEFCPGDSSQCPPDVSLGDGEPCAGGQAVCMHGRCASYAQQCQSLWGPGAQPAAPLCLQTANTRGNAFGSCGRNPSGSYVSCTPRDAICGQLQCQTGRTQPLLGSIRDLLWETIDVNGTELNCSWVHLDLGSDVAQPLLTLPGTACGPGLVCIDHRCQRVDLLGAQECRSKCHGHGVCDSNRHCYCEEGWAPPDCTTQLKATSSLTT

T2: E444A (Homo sapiens, UniProt P78325)
T2 construct: expressed on HEK293 cells; also called human ADAM8 point mutant E444A
T2 sequence (ADAM8, looked up): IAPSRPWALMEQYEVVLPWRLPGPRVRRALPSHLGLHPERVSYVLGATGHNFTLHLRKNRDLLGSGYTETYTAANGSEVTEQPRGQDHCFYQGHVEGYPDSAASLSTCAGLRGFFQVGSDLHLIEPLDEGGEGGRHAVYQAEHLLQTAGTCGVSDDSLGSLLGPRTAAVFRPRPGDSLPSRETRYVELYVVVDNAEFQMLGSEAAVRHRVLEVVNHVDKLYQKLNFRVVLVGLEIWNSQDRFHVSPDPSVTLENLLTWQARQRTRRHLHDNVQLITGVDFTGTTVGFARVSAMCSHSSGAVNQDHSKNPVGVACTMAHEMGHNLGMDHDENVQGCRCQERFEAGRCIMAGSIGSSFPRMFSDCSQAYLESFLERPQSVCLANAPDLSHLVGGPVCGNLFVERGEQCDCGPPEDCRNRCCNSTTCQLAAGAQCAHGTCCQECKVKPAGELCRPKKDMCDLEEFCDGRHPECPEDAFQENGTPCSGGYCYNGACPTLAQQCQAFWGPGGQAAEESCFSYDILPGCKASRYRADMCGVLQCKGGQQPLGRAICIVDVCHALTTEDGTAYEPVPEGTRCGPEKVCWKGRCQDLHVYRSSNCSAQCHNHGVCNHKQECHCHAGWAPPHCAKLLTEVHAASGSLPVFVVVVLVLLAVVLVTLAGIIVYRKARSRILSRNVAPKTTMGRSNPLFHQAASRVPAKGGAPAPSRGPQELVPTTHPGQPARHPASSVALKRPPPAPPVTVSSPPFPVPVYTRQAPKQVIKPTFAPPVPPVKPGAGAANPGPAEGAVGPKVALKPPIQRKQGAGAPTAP

B1: ADP2 (antibody, V domains shown)
VH: EVKLVESGGGLVQPGGSLSLSCAASGFSFPDYYMSWVRQPPGKALEWLGFIRDSANGYTTEYIASVKGRFTFSRDNSQSILYLQMNALRAEDSATYYCARYSRYYGMDYWGQGTSVTVSS
VL: SIVMTQTPKILLVSAGDRVTITCKASQTVNYDVAWYQQKPGQSPKPVIYFASNRYTGVPDRFTGSGFGTDFTFTISTVQAEDLAVYFCQQDYSAPWTFGGGTKLEIK
notes: also called mADP2; mouse ADP2
B2: ADP2 Fab (Fab, V domains shown)
VH: EVKLVESGGGLVQPGGSLSLSCAASGFSFPDYYMSWVRQPPGKALEWLGFIRDSANGYTTEYIASVKGRFTFSRDNSQSILYLQMNALRAEDSATYYCARYSRYYGMDYWGQGTSVTVSS
VL: SIVMTQTPKILLVSAGDRVTITCKASQTVNYDVAWYQQKPGQSPKPVIYFASNRYTGVPDRFTGSGFGTDFTFTISTVQAEDLAVYFCQQDYSAPWTFGGGTKLEIK

Legend:
[1] = target: T1, Recombinant human ADAM15 (Sino …); test: ELISA, recombinant ADAM15
Experimental: ELISA assays were also used to test hybridoma clones, subclones and purified ADP antibodies for specificity of ADAM8 binding, i.e., binding to rHuADAM8 (Acro Biosystems, AD8-H5223) was compared to binding to closely related recombinant human ADAM proteins: […], ADAM12 (Acro Biosystems, AD2-H5228) and ADAM15 (Sino Biological, 10517-H08H). For analysis of clones and subclones, 50 μl of cell supernatants were used. A test bleed sample (1:1000) was used as a positive control. Hybridoma culture medium or a pre-bleed serum sample (1:1000) was used as a negative control. Purified mouse ADPs were assessed at 1 μg/ml vs normal mouse IgG and with a test bleed sample as a positive control. ADP binding was detected with a goat anti-mouse IgG (Fc specific)-peroxidase antibody (1:5000, Sigma-Aldrich, A0168).

E444A = target: T2, E444A; test: high-throughput flow cytometry, HEK293 cells with mutant ADAM8, high stringency; range in parentheses; closed box
Experimental: A variety of experimental parameters were optimized for high-throughput flow cytometry including blocking buffer, and primary and secondary antibody concentrations, to identify the optimal conditions for screening. Through these studies ADP2 and ADP13 were determined to be high affinity binding antibodies.
Thus, for these studies antigen-binding fragments (Fabs) of ADP2 and ADP13, which bind with lower affinity than the full antibody, were generated. In addition, higher binding stringency conditions were tested, such as increased pH, salinity, and temperature, and/or increased washing, to weaken binding sufficiently to allow identification of critical binding residues in flow cytometry. The final experimental flow cytometry conditions were: primary antibody incubation with ADP2 Fab (0.50 μg/ml), ADP13 Fab (5.00 μg/ml) and Control Ab (0.16 μg/ml) for 60 minutes in flow cytometry buffer containing 10% goat serum in PBS (Ca²⁺ and Mg²⁺ free). […] Samples were washed three times after primary antibody incubation and twice after secondary antibody incubation with PBS (Ca²⁺ and Mg′ free). Next, HEK293 cells expressing WT or mutated ADAM8 proteins or EV DNA were incubated with ADP2 or ADP13 Fabs or Control Ab at their optimal concentrations. Fab binding was detected using Alexa Fluor 488-conjugated secondary antibodies and mean cellular fluorescence determined using the Intellicyt iQue flow cytometry platform. […] This counter-screen strategy facilitates the exclusion of mutants that are locally misfolded or that have an expression defect. Binding of each test Fab to each mutant clone in the alanine scanning library was determined, in duplicate, by high-throughput flow cytometry.

Row | Binder | binding result [1] | Binding Reactivity (% WT) (E444A)
1 | B1 | no binding (tested: 1 µg/ml) | 
2 | B2 |  | 17.6
